Drawing on patent US20120207760A1, this text covers Trimeric HA Binding RLU and Trimeric HA Binding: RLU for 5 molecules.

What all share (details): remark: other sources report otherwise
For assay [1], the target named is T1, recombinant homotrimeric HA, A/California/4/09 H1N1 (Influenza A virus A/California/4/09 (H1N1)). Kind of assay: trimeric HA microarray, transfection set 5.
Assay [2] addresses T2, recombinant homotrimeric HA, A/Japan/305/57 H2N2 (Influenza A virus A/Japan/305/57 (H2N2)). Kind of assay: trimeric HA microarray, transfection set 5.
The target of assay [3] is T3, recombinant homotrimeric HA, A/Solomon Islands/3/06 H1N1 (Influenza A virus A/Solomon Islands/3/06 (H1N1)). Kind of assay: trimeric HA microarray, transfection set 5.
Assay [4] deals with T4, recombinant homotrimeric HA, A/Wisconsin/67/05 H3N2 (Influenza A virus A/Wisconsin/67/05 (H3N2)). Kind of assay: trimeric HA microarray, transfection set 5.
For assay [5], the target named is recombinant soluble homotrimeric HA of A/California/4/09 (H1N1) (Influenza A virus A/California/4/09 (H1N1)). Kind of assay: microarray, BCC supernatant IgG, trimeric HA.
In assay [6] the target is recombinant soluble homotrimeric HA of A/chicken/Vietnam/NCVD-016/08 (H5N1) (Influenza A virus A/chicken/Vietnam/NCVD-016/08 (H5N1)). Kind of assay: microarray, BCC supernatant IgG, trimeric HA.
Assay [7] addresses recombinant soluble homotrimeric HA of A/northern shoveler/California/HKWF115/07 (Influenza A virus A/northern shoveler/California/HKWF115/2007). Briefly: microarray, BCC supernatant IgG, trimeric HA.
Assay [8] concerns the target T5, recombinant homotrimeric HA, A/Egypt/3300-NAMRU3/08 H5N1 (Influenza A virus A/Egypt/3300-NAMRU3/08 (H5N1)). Briefly: trimeric HA microarray, transfection set 3.
The target of assay [9] is T2, recombinant homotrimeric HA, …. Briefly: trimeric HA microarray, transfection set 3.
Assay [10] concerns the target T6, recombinant homotrimeric HA, A/Vietnam/1203/04 H5N1 (Influenza A virus A/Vietnam/1203/04 (H5N1)). Kind of assay: trimeric HA microarray, transfection set 3.
Assay [11] has as its target T4, recombinant homotrimeric HA, …. Kind of assay: trimeric HA microarray, transfection set 3.
In assay [12] the target is T7, recombinant homotrimeric HA, A/common magpie/Hong Kong/5052/07 H5N1 (Influenza A virus A/common magpie/Hong Kong/5052/07 (H5N1)). Briefly: trimeric HA microarray, transfection set 3.
Assay [13] addresses recombinant homotrimeric HA, A/duck/Yangzhou/02/05 H8N4 (Influenza A virus A/duck/Yangzhou/02/2005 (H8N4)). Kind of assay: trimeric HA microarray, transfection set 3.
The target of assay [14] is T8, recombinant homotrimeric HA, A/swine/Ontario/01911-2/99 H4N6 (Influenza A virus A/swine/Ontario/01911-2/99 (H4N6)). Kind of assay: trimeric HA microarray, transfection set 3.
Assay [15] concerns the target recombinant soluble homotrimeric HA of A/Japan/305/57 (H2N2) (Influenza A virus A/Japan/305/57 (H2N2)). Briefly: microarray, BCC supernatant IgG, trimeric HA.
Assay [16] concerns the target T1, recombinant homotrimeric HA, …. Briefly: trimeric HA microarray, transfection set 2.
The target of assay [17] is T5, recombinant homotrimeric HA, …. Kind of assay: trimeric HA microarray, transfection set 2.
For assay [18], the target named is T9, recombinant homotrimeric HA, A/Hong Kong/1073/99 H9N2 (Influenza A virus A/Hong Kong/1073/99 (H9N2)). Briefly: trimeric HA microarray, transfection set 2.
The target of assay [19] is T2, recombinant homotrimeric HA, …. Kind of assay: trimeric HA microarray, transfection set 2.
The target in assay [20] is T3, recombinant homotrimeric HA, A/Solomon …. Kind of assay: trimeric HA microarray, transfection set 2.
Assay [21] deals with T10, recombinant homotrimeric HA, A/South Carolina/1/18 H1N1 (Influenza A virus A/South Carolina/1/18 (H1N1)). Kind of assay: trimeric HA microarray, transfection set 2.
In assay [22] the target is T6, recombinant homotrimeric HA, …. Kind of assay: trimeric HA microarray, transfection set 2.
In assay [23] the target is T4, recombinant homotrimeric HA, …. Kind of assay: trimeric HA microarray, transfection set 2.
The target in assay [24] is T11, recombinant homotrimeric HA, A/chicken/Vietnam/NCVD-016/08 H5N1 (Influenza A virus A/chicken/Vietnam/NCVD-016/08 (H5N1)). Kind of assay: trimeric HA microarray, transfection set 2.
Assay [25] addresses T7, recombinant homotrimeric HA, A/common …. Kind of assay: trimeric HA microarray, transfection set 2.
Assay [26] has as its target T12, recombinant homotrimeric HA, A/northern shoveler/California/HKWF115/07 (Influenza A virus A/northern shoveler/California/HKWF115/2007 (H6N1)). Briefly: trimeric HA microarray, transfection set 2.
In assay [27] the target is T8, recombinant homotrimeric HA, …. Kind of assay: trimeric HA microarray, transfection set 2.
For assay [28], the target named is recombinant soluble homotrimeric HA of A/Wisconsin/67/05 (H3N2) (Influenza A virus A/Wisconsin/67/05 (H3N2)). Kind of assay: microarray, BCC supernatant IgG, trimeric HA.
Assay [29] has as its target T9, recombinant homotrimeric HA, A/Hong …. Kind of assay: trimeric HA microarray, transfection set 3.
The target in assay [30] is recombinant homotrimeric HA, A/Netherlands/219/03 H7N7 (Influenza A virus A/Netherlands/219/03 (H7N7)). Kind of assay: trimeric HA microarray, transfection set 3.
Assay [31] addresses T3, recombinant homotrimeric HA, A/Solomon …. Kind of assay: trimeric HA microarray, transfection set 3.
For assay [32], the target named is T10, recombinant homotrimeric HA, A/South …. Kind of assay: trimeric HA microarray, transfection set 3.
Assay [33] addresses T11, recombinant homotrimeric HA, …. Briefly: trimeric HA microarray, transfection set 3.
Assay [34] concerns the target T12, recombinant homotrimeric HA, A/northern …. Briefly: trimeric HA microarray, transfection set 3.
Assay [35] concerns the target recombinant soluble homotrimeric HA of A/Solomon Islands/3/06 (H1N1) (Influenza A virus A/Solomon Islands/3/06 (H1N1)). Kind of assay: microarray, BCC supernatant IgG, trimeric HA.
Assay [36] has as its target recombinant soluble homotrimeric HA of A/duck/Yangzhou/02/05 (H8N4) (Influenza A virus A/duck/Yangzhou/02/2005 (H8N4)). Briefly: microarray, BCC supernatant IgG, trimeric HA.

B1: TCN-547 (5092_F11) (antibody, V domains shown)
VH: QVQLQESGPGLVKPSQTLSLTCTVSGDSISSVDHYWSWIRQHPVKGLEWIGFMYYSASTYYNPSLKSRVTISTDTSKNQFSLRLSSVTAADTAVYYCARGTCAGDCSLHYYYYGLDVWGQGRTVTVSS
VL: DIQMTQSPSSLSASVGDRVTITCRASQSISSYLNWYQHKPGKAPKVLMYAVSILQSGVPSRFSGSGSGADFTLTISSLQPEDFATYYCQQSYSSPLTFGGGTKVEIK
Turning to B1, the Trimeric HA Binding RLU came to 1470 RLU in assay [1], 1350 RLU in assay [2], 1080 RLU in assay [3] and 6970 RLU in assay [4]. Further, the Trimeric HA Binding: RLU in assay [5] is 170 RLU; in assay [6], 198 RLU; in assay [7], 1000 RLU.

B2: TCN-531 (5091_H13) (antibody, V domains shown)
VH: EVQLVESGGDLVQPGRSLKLSCTGSGFTFGDYGVTWVRQAPGKGLEWVGFIRTRPWGGTADTAASVKGRFTISRDDSKSLAYLQMNSLKTEDTAVYYCCRDAPPNVEVASMTNWYFDLWGRGTLVTVSS
VL: DIQLTQSPSSLSASVGDRVTITCRASQGILNCLAWYQQKPGKVPNLLMYAASTLQSGVPSRFSGSGFGTDFTLTISSLQPEDVATYYCQTYGGVSTFGGGTKVEIR
For the molecule B2, the Trimeric HA Binding RLU in assay [8] is 363 RLU; in [9] it was 489 RLU; in assay [10], 2410 RLU; in assay [11], 4160 RLU; in [12], 37 RLU; in assay [13], 3220 RLU. Moreover, the Trimeric HA Binding RLU in [14] is 296 RLU. For the same molecule, the values for the Trimeric HA Binding: RLU in assay [5], in assay [15] and in [6] were 22200 RLU, 410 RLU and 20800 RLU, respectively.

B3: TCN-522 (3212_I12) (antibody, V domains shown)
VH: QVQLQQWGAGLLKPSETLSLTCTVSGGSLTDYSWNWIRQPPGKGLEWIGDTLHNGYTNYNPSLRGRVSISIDTSKNQVSLRLTSVTAADTALYYCARGSGGYGGFDYFGKLRTWDFWGQGTLVTVSS
VL: DIQLTQSPSSLSASVGDRVTITCRASQGIRNDLGWYQQKPGNAPKRLIFGASSLQSGVPSRFSGSGSGTEFTLTISSLQPEDFATYYCLQHNSYPYTFGQGTKLEIK
In the case of B3, the Trimeric HA Binding RLU in assay [16] stood at 37500 RLU; in [17], 55400 RLU; in [18], 11800 RLU; in assay [19] it was 11900 RLU; in assay [20] it was 17300 RLU; in assay [21], 39600 RLU. Also, the Trimeric HA Binding RLU in assay [22] came out at 48200 RLU; in [23], 3350 RLU; in assay [24], 49300 RLU; in [25], 21400 RLU; in assay [26] it was 54400 RLU; in [27], 1050 RLU. The Trimeric HA Binding: RLU in [28] is 302 RLU.

B4: TCN-532 (5262_H18) (antibody, V domains shown)
VH: QVQLQESGPGLVKPSETLSLTCTVSGGSVSSETYYWSWIRQPPGKGLEWIGYIYYIGNTDYRPSLKSRVTISLDTSKNQFSLKLSSVTAADTAVYYCARGAYYDSSGYPAFYIWGQGTMVTVSS
VL: QSVLTQPPSVSGAPGQRVTISCTGSSSNIGSDYDVHWYKQLPGTAPKLLIFGNSNRPSGVPDRFSGSKSGTSASLAITGLQAEDEADYYCQSYDSSLSGFHVFGSGTKVTVL
In the case of B4, the Trimeric HA Binding RLU came to 48 RLU in assay [29]; 441 RLU in [9]; 42 RLU in assay [30]; 59 RLU in assay [31]; 311 RLU in [32]; 9970 RLU in [11]. Moreover, the values for the Trimeric HA Binding RLU in [33], in [34] and in assay [14] were 29 RLU, 78 RLU and 29 RLU, respectively.

B5: TCN-529 (5297_H01) (antibody, V domains shown)
VH: QITLRESGPTLVKPTQTLTLTCTFSGFSLSTNGVNVGWIRQPPGKALEWLALIYWDDDKRYSPSLKRRLTITKDTSKNQVVLTLTNMDPVDTATYYCAHRPDFYGDFEYWGPGTLVTVSS
VL: QSALTQPASVSGSPGQSITISCTGSSSDIGGYNYVSWYQQHPGKAPKLMIYDVNNRPSGVSNRFSGSKSGNTASLTISGLQTDDEADYYCGSYTGSPHYVFGTGTKVTVL
Regarding B5, the Trimeric HA Binding RLU was determined as 46 RLU in assay [29]; 45 RLU in assay [9]; 43 RLU in assay [31]; 158 RLU in assay [32]; 2940 RLU in assay [11]; 33 RLU in assay [33]. Further, the Trimeric HA Binding RLU in [13] stood at 48 RLU; in assay [14], 45 RLU. Moreover, the Trimeric HA Binding: RLU turned out to be 179 RLU in [35] and 771 RLU in assay [36].
